From US20180333477A1

Target: RSV line 19 F protein with I557V, as expressed by vaccine candidate OE4 (respiratory syncytial virus strain line 19) (UniProt P12568)
Assay: MPE8 binding to virus stocks kept at 4 C over 8 days

Pre-F-specific mAb MPE8 (antibody)
pre-F antigen level (MPE8 binding) relative to A2: > 2 fold
